In PMC3198853:
pKd: −log10 of the molar value.

Target: LDLRs
Assay: SPR

## Tissue-type plasminogen activator (recombinant human tPA, Actilyse) (enzyme)
  pKd: 6.48
